To fix the notation:
B1: unnamed (protein)
chain: MASQTNPYARGPNPTAASLEASAGPFTVRSFTVSRPSGYGAGTVYYPTNAGGTVGAIAIVPAYAARQSSIKWWGPRLASHGFVVITIDTNSTLDQPSSRSSQQMAALRQVASLNGTSSSPIYGKVDTARMGVMGWSMGGGGSLISAANNPSLKAAAPQAPWDSSTNFSSVTVPTLIFACENDSIAPVNSSALPIYDSMSRNAKQFLEINGGSHSCANSGNSNQALIGKKGVAWMKRFMDNDTRYSTFACENPNSTRVSDFRTANCSLEHHHHHH
B2: unnamed (protein)
chain: MNTSILEKMAVGASALLFSFSAFSFTPDPTPDPDPDPGPGPCQSDCDFTRGPNPTSSYLEANSGPYSVSTISVSRSVSGFGGGTIHYPTNTTGTMGAVAIVPGFLAGESSISWWGPRLASHGFVVITIATNSGFDQPDSRETQLGRALDYVISQSNSGSSPISGMVDSTRVGAMGWSMGGGGTLRLASGTRLSAAIPLAPWHSGSNNFNQIDTPTLIIACENDSTAPVGSHASPFYNRIPTSTDKAYLEINNGSHSCANGGGSNGGLLGKYGVSWMKRFIDQDTRYSQFLCGPNHAANSAISEYRETCNY
B3: unnamed (protein)
chain: MRLIRRWPMRRLAIGFVLALVLSACDWRGPAPTQQSVVAARGPFAVGTIAVPSSAGFGGGTIYYPSDNAGPFAVISISPGFLGDQSSIAVWGPRLASNGFVAITINTTNGFILPDQRSQEQRQALTYVVNQGNNPSSPISGKVDPDRKGVAGHSMGGGATLISANADPTIRAAMPLAPWNGSASFPNVRVPTLIWACEADNIAPVASHASPMYNSIPSTTRKMYLSVDNGNHFCANSPDNSSQTVGKFGVSFFKKFLDTDTRYDPWVCGASRATAGTVLNEVRSTCPF
B4: unnamed (protein)
chain: MSCRQEPLGDKMRFFSQKCLATVAAVVATLASGAALAQTSNPYQRGPNPTTSSLEASRGSFAISQFRVSRPSGFGGGTVYYPTNAGGTVGAIAVVPGFLARQSTINWWGPRLASHGFVVITIDTNSTSDQPASRATQLMAALRQVVTLNGTRSSPIYNKVDTSRLAVMGWSMGGGGTLIAARDNPTLKAAVPFAPYNTGTNFSASAVPTLIIGCESDTVAPVGQHAEAFYTSMTRPEKAYLEINGGSHTCATSGNRNQAMIGKYGVSWMKRFVDNDTRFSDFLCGAPHAADLRNTSVISEYRETCPY
B5: unnamed (protein)
chain: MRPSSSSLHTAVPLRPCSRAMTALIALATTIGLALALLTAAAPPAAAADLLSQGRLATASSTENTSTPASAAVDGNTGTRWASTFSDPQWLSVDLGATATISQVVLRWEAAYARAFQIQTSTNGTVWTTVHSTTTGTGGVQTLDVIGNGRYVRMLGTQRGTTYGYSLFEFQVYGSGGGTPPGNGIPDPTATSLETANGPLTTATYAVPSPSGYGSGTVTYPTDSGSYPGVVLMPGYQGTQQNLQWLAPRLASWGFVVINVGTNTLTDDPASRGRQITAAGSQLIALGNAAGNPLSGRVSGALGAVGHSMGGGGVMAALRDDARFRAGVPTAPYYPDTNFSAVTEPTFFLTCQSDPVAHGNDYAVPWYNSMSQAEKLYIEVPGDHLCPMTGSGNKAKQGKWIVSFLSLWLRADTRFSPFLCGPVRDPDKNNPSLVTRWMDTCSF
B6: unnamed (protein)
chain: MLRFRVAASLPAEYLAVDNVVLEGTAQPPAPGGSGYQKGPEPTAALLEAGTGPFATASVTLSRSAASGFGGGTIHYPQGVAGPFAAVAVVPGYLAAESTIAWWGPRLASHGFVVITMATNNTLDLPASRSAQLTAALNQLKTLSATPGHAVFGLVDPNRLGVVGWSYGGGGTLLNAQANPQLKAAMALAPKTLLQGDFTGTTVPTLVVGCQADTTAAPAFWAIPFYNKVSASTGKAYLEVRGGSHFCVTSSTSDADKKALGKYGVAWLKRFMDEDTRYAPFLCGAPRQADVAGNAAISDYRDNCPY
B7: unnamed (protein)
chain: MKKLALKKLAACTFSLLFSLSAYSGGGDDGSNSGELPPPSTCSINCGFEIGPDPSLSFVRASQGPLPVSTSIVSSSVDGFGGGTIYYPSTITDEMATIAISPGFTASQSAIAWWGPLLASHGFVVITIDTNGTFDQPTSRGRQLDSALNYLISEGNRANSPVAGLIDENRLATMGHSMGGGGALQSAARNRLSASVPLAPFNTGSNDFNQINVPTMIMGCEDDGVAPVNSHAIPFYQDIPGTTDKALLEIANGPHNCANGGSSNNPTLSTYGVSWMKRFLDKDRRYDQFLCGPDHIADSRISDFRDTCTF
B8: unnamed (protein)
chain: MKTSNSRQRRWAVGLGLLLLAAAAHAQTNPYQKGPDPTSASLNATAGPFAVATTSVSSSASGFGGGTIYYPTTAGSYAAIAISPGFTATQSSIAWLGRRLASHGFVVITINTNSTLDQPPSRATQLMAALRYLTNSSSSTVRSRVDANRLGVAGHSMGGGGTLIAARDNPTLKAAVPLTPWSTTKSFSTVRVPTLIVGAENDTVAPVSSHSIPFYNSLPSSLDKAYAELNGASHFAPNSTNTPIGRYSVAWVKRFMDNDTRYSPFLCGAPHTAYATSTVFSDYRSTCPY
B9: unnamed (protein)
chain: MKTSNTRTARTIPGDTMSLGLTRLAKAAVLAAALLMSAAAQAQSNPYQKGPDPTAASLEATAGSFAVSTTSVSSLSASGFGGGTIYYPTAAGSYGAIAVSPGFTATQSSIAWLGPRLASHGFVVITIDTNSTLDQPDSRATQLMAALNYVVSLSQTSSSPIYGKVDANRLGVAGHSMGGGGTLIAARDNPTLKAAVPLAPWNTTKNFSSVTVPTLIIGCENDTVAPVSSHAIPFYNSIPSSTDKAYMELNGADHFCPQSSSNNPIIGKYMVAWMKRFVDNDTRYSPFLCGAPHQADLSSSAVSDYRSNCPY
B10: unnamed (protein)
chain: MGSDDAWIRGEDPTEASIVAMGPYAVGEITEADGLRDGPLYGDASVGDGGATVYYPTDADPPFGGIAVYPGWLYNRDAIAGWGPFLASHGIVMMAVDPQSTGEQPEDRQLGQADALISLKGENTRAGSPLEGKLDTTRLGVMGWSMGGGATWLNADDTASEVYADLVVAISLCGWRPVAVGGNTKAASLQFASVADVLAGGMSQPVYDLIPASTPKMLIEFEGDDHFIANDPSGASWQVGRYGLSWIKVFLERDERYRPFLMTMPMNTTEVRPLM
B11: unnamed (protein)
chain: MKFNLVAQAALFAATLAAGSAAWAVQIGPAPTKSALEASRGPFSTKSFTVSRPNGYGAGTVYYPTNAGAKVGVISIVPGYLSYQNSINWWGPRLASHGFVVVTIDTNSTTDQPASRSTQQLKALDQVVALGNTSSSPLYNKVDGSRTGVMGWSMGGGGSLISGQNRPSIKAAAPQAPWNSSTNFSSLTVPTLIFGCQSDATAAPASHAIPFYNSMSRNPKQYLEKSLGNHFCFNSANATVGLKGVAWMKRFVDGDTRYTSFACNNPNASGFSSFRTERCS
B12: unnamed (protein)
chain: MKVNKAHSIAVGLLSLVAVAHTHAQTNPYAKGPDPTSAALEADGPFVVSTQNISGAGFGGATVYSPDTAGTYAVVAFCPGFTATRSSVASFGRRLATHGFVVATIDTNSTLDLPPSRGTQLLAALKTVSALSTGPAAGKIDASRKVVSGWSMGGGGTLYASASDETLKTAVGLAPYSAQKKKFSTSVPQLILGGEDDIVAPVSSHSLSFFNQLPNATPKLYAEIADADHYFPTDAESSQPASKLQIAWVKRFADNDTRYEQFLSTAGIQVDLTNGRLSDSRRESTTF
B13: unnamed (protein)
chain: MKFRLAKLAVLSCALASASAFAQYQKGPDPTTSSLERAGSFATRTISVSSLAASGFGGGRIYYPTASGSYGVIAVSPGYTGTASTMYFWGERLSSHGFVVIVIETNTLLDQPGSRANQLMAALNYTVSQGNSRTSALYGKVDGNRRGVAGHSMGGGGTLIAAADNASLKAAVPMAPWNLSSLSFRGIRVPTMIFGCQSDAIAPVNTHAVPFYNAIPSSTKKGYVEMRLDDHFCVMNGGGHYETLGKLGISWFKRFIDEDTRYSKFLCGTEYNATVRSTEVSDSKNNCPY
B14: unnamed (protein)
chain: MRAGFMGVGAAALVALAGCSSTPSNEGTSKPSVTAPTGGSTVIGAAGVGATAGRPASAGTGASPAVTPPSTTVPSGTTKPPAAAGSSAMGAAGAAVSGMAGSSASAGTGAIAGSSAAAGSSAAAGSGAAAGSGAAPGGGFIREAAPTEDSLKKNGEYSVKSYTEKDGLVGGMEYGDAALGGDGSELYYPEGATAPFAAMAIVPGFTAQRSDVAPWGPFLASHGIVALVIDTNSTGDQPDVRSRALLDALESIKKENMRDGSPVKGKIDTSRLGVMGWSMGGGGTWITADGHPELKVAVSLCGWIIQSIGSKTTVPSLQLAVQDDQLAAGMSQPVYMAIPDKTPKMLVEWSSGGHWINNSPENVDHQVGRYGLPWIKVYLENDERYRQFFKTKPTGASDFQTNQ
B15: unnamed (protein)
chain: MLALRTSFPRVLTRLLAASLATGLVAQAQAAGHERGPAPTAASLEAEAGPFQVASTVLGAPVGYKGGTVFYPKGPGPFALVAFAPGFIETQSWNAWWAKYLASHGFVVVNIDTKSTLAFPPARQREQLAALKDVIQRSHTRGTPFYGLVDATRLGAMGHSMGGGATLELARDTPHIKAIVPMAPFQTTGTDYSRLTVPTLILTCKGDIVASAKSHAAPIYDSLPSSLDKAHVELAGGGGHPCTTSLGTSAEVKKVAAKYGVSWLKRFLDEDTRYSPFLCGAEHEASLKTSVVSAYQGNCPH

Substrate in this data set: BHET
The settings on record: 120 h.
As for B1, the plate clearing entry was “not clears the plate”.
For B2 the value was “not clears the plate”; for B3, “not clears the plate”; for B4, “not clears the plate”.
The entry for B5 is “not clears the plate”; for B6 it is “not clears the plate”.
As to B7, the plate clearing entry is on record as “not clears the plate”.
For B8 the value was “not clears the plate”; for B9, “not clears the plate”.
The entry for B10 is “clears the plate (z > 3 vs empty vector)”; for B11 it is “not clears the plate”.
For the protein B12, the plate clearing result is “not clears the plate”.
Consider B13, for which the plate clearing entry is recorded as “not clears the plate”.
The entry for B14 is “clears the plate (z > 3 vs empty vector)”.
The entry for B15 is “not clears the plate”.

The values are drawn from the PETadex activity labels.
